Among the data in patent publication US20220119490A1 (Genentech, published 2022) are binding result and Kd values, retold here.

To fix the notation:
B1: CEACAM4 expressed on cells (receptor, human, UniProt O75871 36-244, looked up)
chain: FTIEALPSSAAEGKDVLLLACNISETIQAYYWHKGKTAEGSPLIAGYITDIQANIPGAAYSGRETVYPNGSLLFQNITLEDAGSYTLRTINASYDSDQATGQLHVHQNNVPGLPVGAVAGIVTGVLVGVALVAALVCFLLLSRTGRASIQRDLREQPPPASTPGHGPSHRSTFSAPLPSPRTATPIYEELLYSDANIYCQIDHKADVVS
notes: whole, on cells
B2: CEACAM4 extracellular domain (receptor, human, UniProt O75871 36-155, looked up)
chain: FTIEALPSSAAEGKDVLLLACNISETIQAYYWHKGKTAEGSPLIAGYITDIQANIPGAAYSGRETVYPNGSLLFQNITLEDAGSYTLRTINASYDSDQATGQLHVHQNNVPGLPVGAVAG
notes: extracellular domain; ECD construct
B3: PD-L2 extracellular domain (ligand, human, UniProt Q9BQ51 20-220, looked up)
chain: LFTVTVPKELYIIEHGSNVTLECNFDTGSHVNLGAITASLQKVENDTSPHRERATLLEEQLPLGKASFHIPQVQVRDEGQYQCIIIYGVAWDYKYLTLKVKASYRKINTHILKVPETDEVELTCQATGYPLAEVSWPNVSVPANTSHSRTPEGLYQVTSVLRLKPPPGRNFSCVFWNTHVRELTLASIDLQSQMEPRTHPT
notes: extracellular domain; ECD construct; also called PDCD1LG2; programmed cell death 1 ligand 2
B4: mouse PDPN (receptor, UniProt Q62011 23-141, looked up)
chain: GTIGVNEDDIVTPGTGDGMVPPGIEDKITTTGATGGLNESTGKAPLVPTQRERGTKPPLEELSTSATSDHDHREHESTTTVKVVTSHSVDKKTSHPNRDNAGDETQTTDKKDGLPVVTL

Assay [1] addresses T1, PD-L1 extracellular domain (human, UniProt Q9NZQ7 19-238).
T1 construct: extracellular domain; ECD construct; also called CD274; programmed cell death 1 ligand 1
Briefly: cell surface interaction assay: PD-L1 ECD tetramer on transfected cells (FIG. 4F).

In assay [2] the target is T1, PD-L1 extracellular domain. Briefly: SPR, CEACAM4 ECD-Fc immobilized, ECD-Fc analytes at 250 nM. The source says: (§1) An irrelevant Fc-tagged protein was used as a control. Sensorgram shown is representative of at least 3 independent runs.
For orientation: SPR reads the build-up and loss of mass on a sensor chip optically.

Assay [3] deals with T2, PD-1 extracellular domain (human, UniProt Q15116 25-170).
T2 construct: extracellular domain; ECD construct; also called PDCD1; programmed cell death 1
T2 sequence (Q15116 25-170): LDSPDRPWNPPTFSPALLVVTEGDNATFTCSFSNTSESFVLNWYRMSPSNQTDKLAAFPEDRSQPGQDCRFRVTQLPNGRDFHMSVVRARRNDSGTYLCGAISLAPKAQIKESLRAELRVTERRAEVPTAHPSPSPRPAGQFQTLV
Described as above.
Source text: as §1

The target of assay [4] is B3. As to the kind of experiment: SPR, calculated in equilibrium; PD-L2 immobilized, His-tagged CEACAM4 ECD as analyte (FIG. 10E).
The target of assay [5] is T3, EPHA3 extracellular domain (human, UniProt P29320 21-541).
T3 construct: extracellular domain; ECD construct; also called ephrin type-A receptor 3
T3 sequence (looked up): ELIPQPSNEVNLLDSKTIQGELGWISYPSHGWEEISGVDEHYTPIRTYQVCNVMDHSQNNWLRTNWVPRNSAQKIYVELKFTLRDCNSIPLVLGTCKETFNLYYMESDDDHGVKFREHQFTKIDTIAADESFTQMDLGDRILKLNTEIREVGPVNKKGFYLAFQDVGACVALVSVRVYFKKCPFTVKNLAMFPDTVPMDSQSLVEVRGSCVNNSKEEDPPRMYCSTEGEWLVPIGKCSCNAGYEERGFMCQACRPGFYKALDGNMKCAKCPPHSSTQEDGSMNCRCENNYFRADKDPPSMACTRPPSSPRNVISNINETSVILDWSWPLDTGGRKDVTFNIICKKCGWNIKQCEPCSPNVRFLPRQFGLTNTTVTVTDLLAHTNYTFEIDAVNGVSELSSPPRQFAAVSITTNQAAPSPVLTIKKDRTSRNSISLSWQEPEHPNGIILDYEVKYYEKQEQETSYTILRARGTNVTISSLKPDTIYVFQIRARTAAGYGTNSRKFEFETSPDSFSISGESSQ
Briefly: SPR, EPHA3 ECD-Fc immobilized, ECD-Fc analytes at 250 nM.
Source text: as §1

The target of the next assay is T4, ICAM5 (human, UniProt Q9UMF0).
T4 construct: extracellular domain
T4 sequence (extracellular domain construct of the screen, looked up): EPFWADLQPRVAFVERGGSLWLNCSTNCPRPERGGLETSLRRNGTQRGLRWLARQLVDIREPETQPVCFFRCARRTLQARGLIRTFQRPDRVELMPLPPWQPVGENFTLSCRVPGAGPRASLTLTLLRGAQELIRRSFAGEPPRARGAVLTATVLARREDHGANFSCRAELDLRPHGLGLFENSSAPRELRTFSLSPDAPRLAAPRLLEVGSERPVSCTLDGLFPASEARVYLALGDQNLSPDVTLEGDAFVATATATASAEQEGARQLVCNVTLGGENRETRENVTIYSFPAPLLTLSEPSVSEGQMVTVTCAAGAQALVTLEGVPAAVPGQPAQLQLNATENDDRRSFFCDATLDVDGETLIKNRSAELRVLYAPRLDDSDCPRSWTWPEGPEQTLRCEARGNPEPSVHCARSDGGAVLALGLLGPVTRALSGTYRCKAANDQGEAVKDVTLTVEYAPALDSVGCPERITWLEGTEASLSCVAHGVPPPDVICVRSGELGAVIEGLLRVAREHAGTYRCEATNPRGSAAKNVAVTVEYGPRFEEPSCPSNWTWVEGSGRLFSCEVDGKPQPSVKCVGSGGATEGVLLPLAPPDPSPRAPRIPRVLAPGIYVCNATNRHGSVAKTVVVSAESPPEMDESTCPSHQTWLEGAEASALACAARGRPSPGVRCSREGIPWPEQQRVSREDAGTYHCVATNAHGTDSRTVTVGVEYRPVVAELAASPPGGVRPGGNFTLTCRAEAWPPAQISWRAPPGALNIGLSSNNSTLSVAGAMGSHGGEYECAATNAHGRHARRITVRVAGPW
Briefly: extracellular interaction screen, normalized intensity; labelled dot against the clone named on the axis; which is query and which prey is not given; colour of the predicted class lost.

Assay [6] addresses T5, CEACAM5 expressed on cells (human, UniProt P06731 35-685).
T5 construct: whole, on cells
T5 sequence (looked up): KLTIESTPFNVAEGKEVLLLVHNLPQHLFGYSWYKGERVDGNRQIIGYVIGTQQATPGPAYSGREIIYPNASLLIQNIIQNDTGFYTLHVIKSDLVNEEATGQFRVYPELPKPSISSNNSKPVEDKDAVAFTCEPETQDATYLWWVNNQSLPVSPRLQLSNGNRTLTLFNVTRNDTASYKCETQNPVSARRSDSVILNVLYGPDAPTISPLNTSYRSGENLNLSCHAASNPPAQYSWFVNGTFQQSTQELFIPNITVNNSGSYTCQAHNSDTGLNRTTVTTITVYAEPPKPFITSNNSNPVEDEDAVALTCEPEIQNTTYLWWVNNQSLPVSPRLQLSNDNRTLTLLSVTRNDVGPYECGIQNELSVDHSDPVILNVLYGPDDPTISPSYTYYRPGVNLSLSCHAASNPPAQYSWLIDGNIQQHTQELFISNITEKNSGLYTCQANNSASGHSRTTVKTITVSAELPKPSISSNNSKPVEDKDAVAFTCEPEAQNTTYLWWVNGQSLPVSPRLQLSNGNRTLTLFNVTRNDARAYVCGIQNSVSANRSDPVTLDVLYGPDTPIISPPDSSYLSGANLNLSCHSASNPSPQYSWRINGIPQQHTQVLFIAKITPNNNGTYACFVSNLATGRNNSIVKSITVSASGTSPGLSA
Briefly: cell surface interaction assay: PD-L2 ECD tetramer on transfected cells (FIG. 4F).

Assay [7] addresses B1. The description is as above.
A further assay addresses T6, EPHA3 expressed on cells (human, UniProt P29320 21-983).
T6 construct: whole, on cells; also called ephrin type-A receptor 3
T6 sequence (looked up): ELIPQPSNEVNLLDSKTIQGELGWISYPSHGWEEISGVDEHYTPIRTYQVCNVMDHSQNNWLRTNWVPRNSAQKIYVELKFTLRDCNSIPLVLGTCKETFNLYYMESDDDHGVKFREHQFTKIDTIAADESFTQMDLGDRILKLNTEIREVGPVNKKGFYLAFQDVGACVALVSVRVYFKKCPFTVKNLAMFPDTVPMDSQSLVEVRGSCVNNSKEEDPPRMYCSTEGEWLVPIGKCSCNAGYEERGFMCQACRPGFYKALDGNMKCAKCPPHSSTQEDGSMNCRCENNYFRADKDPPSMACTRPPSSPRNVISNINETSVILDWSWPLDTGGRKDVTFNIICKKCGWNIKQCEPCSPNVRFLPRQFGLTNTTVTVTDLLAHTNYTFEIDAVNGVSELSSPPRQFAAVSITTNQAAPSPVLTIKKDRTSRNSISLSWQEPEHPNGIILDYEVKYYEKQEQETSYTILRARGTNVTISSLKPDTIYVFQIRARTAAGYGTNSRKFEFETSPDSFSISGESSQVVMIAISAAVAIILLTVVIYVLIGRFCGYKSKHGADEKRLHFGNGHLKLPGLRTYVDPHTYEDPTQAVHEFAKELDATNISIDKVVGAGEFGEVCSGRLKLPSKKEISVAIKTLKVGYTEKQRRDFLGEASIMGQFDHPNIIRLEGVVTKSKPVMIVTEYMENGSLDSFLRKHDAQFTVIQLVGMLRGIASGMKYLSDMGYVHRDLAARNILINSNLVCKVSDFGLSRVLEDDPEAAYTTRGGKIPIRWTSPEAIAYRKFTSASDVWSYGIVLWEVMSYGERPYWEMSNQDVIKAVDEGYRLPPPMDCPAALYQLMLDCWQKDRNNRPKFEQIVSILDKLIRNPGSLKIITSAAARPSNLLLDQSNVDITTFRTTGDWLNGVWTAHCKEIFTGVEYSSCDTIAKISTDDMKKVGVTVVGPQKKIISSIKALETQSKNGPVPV
Described as above.

The target of a further assay is T7, PD-L1 expressed on cells (human, UniProt Q9NZQ7 19-290).
T7 construct: whole, on cells; also called CD274
T7 sequence (Q9NZQ7 19-290): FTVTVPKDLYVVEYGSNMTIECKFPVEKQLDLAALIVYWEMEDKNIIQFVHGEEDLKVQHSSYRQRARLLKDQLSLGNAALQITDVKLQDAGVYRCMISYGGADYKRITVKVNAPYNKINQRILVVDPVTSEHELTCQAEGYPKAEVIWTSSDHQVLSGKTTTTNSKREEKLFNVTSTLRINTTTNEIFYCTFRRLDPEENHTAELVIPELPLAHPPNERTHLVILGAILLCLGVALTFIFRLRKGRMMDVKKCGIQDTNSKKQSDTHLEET
The description is as above.

A further assay has as its target T8, mouse CD177 (mouse, UniProt Q8R2S8 22-796, limits assumed).
T8 sequence (looked up): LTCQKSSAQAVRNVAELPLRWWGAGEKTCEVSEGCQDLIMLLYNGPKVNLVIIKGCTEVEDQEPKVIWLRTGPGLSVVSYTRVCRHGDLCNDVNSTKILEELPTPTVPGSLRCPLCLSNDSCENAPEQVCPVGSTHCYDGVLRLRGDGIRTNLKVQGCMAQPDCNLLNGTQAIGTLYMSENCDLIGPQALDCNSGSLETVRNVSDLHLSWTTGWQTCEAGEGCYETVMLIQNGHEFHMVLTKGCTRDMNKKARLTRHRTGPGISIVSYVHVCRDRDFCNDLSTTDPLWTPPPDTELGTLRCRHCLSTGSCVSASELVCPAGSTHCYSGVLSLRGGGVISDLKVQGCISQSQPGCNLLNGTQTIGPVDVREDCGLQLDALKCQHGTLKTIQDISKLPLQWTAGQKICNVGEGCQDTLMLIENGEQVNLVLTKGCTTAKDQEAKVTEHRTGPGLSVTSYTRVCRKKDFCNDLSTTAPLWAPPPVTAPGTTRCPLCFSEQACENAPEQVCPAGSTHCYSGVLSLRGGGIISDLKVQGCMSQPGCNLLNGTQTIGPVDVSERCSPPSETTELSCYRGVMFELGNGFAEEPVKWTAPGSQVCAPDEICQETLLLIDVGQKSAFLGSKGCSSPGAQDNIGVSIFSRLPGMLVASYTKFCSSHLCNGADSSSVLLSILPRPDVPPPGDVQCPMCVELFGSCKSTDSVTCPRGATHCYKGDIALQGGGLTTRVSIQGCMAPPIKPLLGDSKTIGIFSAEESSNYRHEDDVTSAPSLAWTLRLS
Briefly: SPR.

T1 sequence (Q9NZQ7 19-238): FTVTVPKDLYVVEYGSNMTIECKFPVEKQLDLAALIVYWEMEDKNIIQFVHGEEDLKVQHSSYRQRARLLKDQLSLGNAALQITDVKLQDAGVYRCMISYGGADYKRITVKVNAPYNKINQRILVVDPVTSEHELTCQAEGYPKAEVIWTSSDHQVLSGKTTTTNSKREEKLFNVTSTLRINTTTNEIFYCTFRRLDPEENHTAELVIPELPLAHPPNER

For B1, the binding result in [1] was “no binding”.
Turning to B2, the binding result in assay [2] and in assay [3] was “no binding (tested: 250 nM)” each time. The Kd (as a rule, the equilibrium constant for the complex coming apart) in assay [4] is 84 nM.
Take B3: the binding result in assay [5] is “no binding (tested: 250 nM)”; with ICAM5, “binds”; in assay [6], “no binding”; in assay [7] it was “binds”; with EPHA3 expressed on cells, “no binding”; with PD-L1 expressed on cells, “binds”.
For B4, the binding result in the assay with mouse CD177 is on record as “no binding”.
